Assay results published in patent US20240115720A1, “ANTIBODY-PYRROLOBENZODIAZEPINE DERIVATIVE CONJUGATE” (MEMORIAL SLOAN KETTERING CANCER CENTER, priority 2021, published 2024).

What was measured:
DLL1 = target: T1, DLL1 (Homo sapiens, UniProt O00548); test: Selectivity of binding among delta-like ligands (FIG. 11)
T1 sequence (O00548 18-723): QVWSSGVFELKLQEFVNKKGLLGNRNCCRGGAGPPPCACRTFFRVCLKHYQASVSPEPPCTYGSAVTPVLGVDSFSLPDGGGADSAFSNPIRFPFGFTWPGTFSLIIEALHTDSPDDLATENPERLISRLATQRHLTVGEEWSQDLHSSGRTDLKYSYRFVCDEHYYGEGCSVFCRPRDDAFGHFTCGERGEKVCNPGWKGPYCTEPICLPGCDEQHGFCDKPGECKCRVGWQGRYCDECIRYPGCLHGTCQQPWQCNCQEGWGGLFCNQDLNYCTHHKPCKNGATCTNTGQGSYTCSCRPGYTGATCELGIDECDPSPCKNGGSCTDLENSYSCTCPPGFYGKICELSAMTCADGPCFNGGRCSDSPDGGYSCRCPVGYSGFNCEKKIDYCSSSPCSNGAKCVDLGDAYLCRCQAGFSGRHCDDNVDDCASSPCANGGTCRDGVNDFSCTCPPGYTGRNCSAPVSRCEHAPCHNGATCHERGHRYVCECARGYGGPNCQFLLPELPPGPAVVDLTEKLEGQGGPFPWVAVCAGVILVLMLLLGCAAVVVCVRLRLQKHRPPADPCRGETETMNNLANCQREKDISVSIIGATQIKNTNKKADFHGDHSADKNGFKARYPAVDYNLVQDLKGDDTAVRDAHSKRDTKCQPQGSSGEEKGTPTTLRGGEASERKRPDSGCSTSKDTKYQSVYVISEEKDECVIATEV

DLL3 [1] = target: T2, DLL3 (Homo sapiens, UniProt Q9NYJ7); test: 4/37 internalization assay (staining at 4° C. versus 37° C., flow cytometry); assay type: cell-based; parameters: endogenous in cells; host or cells: NCI-H82; settings: NCI-H82 cells, compared with reference monoclonal antibody SC16
T2 sequence (Q9NYJ7 27-618): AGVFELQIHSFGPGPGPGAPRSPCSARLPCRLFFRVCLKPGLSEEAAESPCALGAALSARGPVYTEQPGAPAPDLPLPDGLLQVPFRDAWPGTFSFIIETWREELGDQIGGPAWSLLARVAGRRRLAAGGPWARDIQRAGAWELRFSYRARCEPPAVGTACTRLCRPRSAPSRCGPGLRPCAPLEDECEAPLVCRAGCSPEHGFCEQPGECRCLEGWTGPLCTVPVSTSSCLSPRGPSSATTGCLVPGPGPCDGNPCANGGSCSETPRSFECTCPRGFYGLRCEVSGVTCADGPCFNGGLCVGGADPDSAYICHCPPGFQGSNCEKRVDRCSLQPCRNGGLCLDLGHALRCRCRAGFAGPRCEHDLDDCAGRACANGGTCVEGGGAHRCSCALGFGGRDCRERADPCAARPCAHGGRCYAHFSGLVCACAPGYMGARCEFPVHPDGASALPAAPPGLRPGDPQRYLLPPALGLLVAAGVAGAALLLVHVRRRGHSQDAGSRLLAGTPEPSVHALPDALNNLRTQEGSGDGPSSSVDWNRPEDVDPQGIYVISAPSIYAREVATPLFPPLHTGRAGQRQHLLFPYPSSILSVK
Protocol: The four monoclonal antibodies (6-G23-F, 2-C8-A, 7-I1-B and 10-O18-A) were compared for their ability to internalize DLL3 by comparing the staining at 4° C. with that at 37° C. A reference monoclonal antibody SC16, which is known to internalize via DLL3 and to have ADC activity, and which was previously reported in the literature, was used as the positive control for internalization. NCI-H82 cells in exponential growth were harvested with trypsin/EDTA, washed once in RPMI containing 10% fetal calf serum (FCS) and resuspended in DMEM supplemented with 10% FCS at 2×10^7 cells/ml. 100 μl (2×10^6 cells) were added to U bottom 96 well plates. The test monoclonal antibodies (6-G23-F, 2-C8-A, 7-I1-B or 10-O18-A) or the reference monoclonal antibody were added to separate wells to give a final concentration of 10 μg/ml in duplicate plates. […] After 30 minutes incubation at 4° C. the cells were washed three times in cold wash buffer and either fixed in PBS 0.5% paraformaldehyde and analyzed by flow cytometry within 48 hours. The mean fluorescent intensity (MFI) ratios calculated by dividing the MFI obtained from the control plate (which incubated with the antibodies at 4° C.) by the corresponding MFI obtained from the experimental plate (which incubated with the antibodies at 37° C.) was taken as a relative measure of internalization. […]

DLL3 [2] = target: T2, DLL3; test: Selectivity of binding among delta-like ligands (FIG. 11)
293 (negative control) = test: Flow cytometry binding to 293 cells (negative control); settings: 10 μg/ml
Protocol: The four monoclonal antibodies (6-G23-F, 2-C8-A, 7-I1-B and 10-O18-A) were tested for their ability to bind to mouse and cynomolgous DLL3 as well as endogenous human DLL3 by flow cytometry. For this purpose, HEK293 cells were transfected with plasmid DNA encoding full-length human, mouse or cynomolgous DLL3 and used in the experiment. Briefly […] transfected HEK293 cells or NCI-H82 primary cells were added in FACS buffer PBS 0.5% BSA to the wells of a 96 well U bottom plate and purified monoclonal added to 10 μg/ml. After 30 minutes incubation at 4° C. the cells were washed 3 times in FACS buffer and incubated with a PE labelled F(ab)2 anti-mouse IgG H and L 2nd stage. After another 30 minutes incubation at 4° C. the cells were washed three times in FACS buffer and analyzed on the flow cytometer. Data are presented at the ratio of the Mean Fluorescent Intensity for the monoclonal divided by the background staining with the 2nd stage.

[3] = target: T3, Histidine-tagged DLL3 antigen (DLL3-His) (Homo sapiens, UniProt Q9NYJ7); test: Pairwise epitope binning, Carterra array SPR; settings: pairwise competition for binding to DLL3-His
T3 sequence (Q9NYJ7 27-479): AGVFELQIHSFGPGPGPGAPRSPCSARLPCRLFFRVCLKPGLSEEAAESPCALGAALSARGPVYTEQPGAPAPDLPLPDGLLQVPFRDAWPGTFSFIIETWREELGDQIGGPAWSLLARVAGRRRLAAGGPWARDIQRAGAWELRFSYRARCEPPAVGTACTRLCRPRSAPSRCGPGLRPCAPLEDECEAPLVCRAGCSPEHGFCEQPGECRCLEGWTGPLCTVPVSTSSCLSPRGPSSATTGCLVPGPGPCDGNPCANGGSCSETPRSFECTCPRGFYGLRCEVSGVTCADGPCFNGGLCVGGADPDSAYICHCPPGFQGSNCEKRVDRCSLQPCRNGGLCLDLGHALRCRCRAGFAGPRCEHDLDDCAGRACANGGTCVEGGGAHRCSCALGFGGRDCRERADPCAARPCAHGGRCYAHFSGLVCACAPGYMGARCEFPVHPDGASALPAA
Protocol: The panel of purified anti-DLL3 monoclonal antibodies and the reference monoclonal antibody were subjected to pairwise epitope binning on a Carterra® array surface plasmon resonance (SPR) assay platform (Carterra® Inc., Salt Lake City UT) where each monoclonal antibody was tested for the capture of Histidine-tagged DLL3 antigen (DLL3-His), and also for competing with every other antibody in the panel for the binding to DLL3-His. The antibodies were immobilized on a HC200M chip (ligand) through standard amine coupling techniques by the print array method. Then in each cycle antigen was injected across the entire array followed by a single antibody (analyte). At the end of each cycle the surface was regenerated to remove antigen and analyte before a new cycle started. As shown in the Table below, three different bins were identified with the panel with 7-I1-B and 2-C8-A mapping to bin 2 while 6-G23-F was in bin 3 and 10-O18-A was in bin 1.

DLL4 = DLL4 (Homo sapiens, UniProt Q9NR61); test: Selectivity of binding among delta-like ligands (FIG. 11)
Chain of DLL4 (Q9NR61 27-685): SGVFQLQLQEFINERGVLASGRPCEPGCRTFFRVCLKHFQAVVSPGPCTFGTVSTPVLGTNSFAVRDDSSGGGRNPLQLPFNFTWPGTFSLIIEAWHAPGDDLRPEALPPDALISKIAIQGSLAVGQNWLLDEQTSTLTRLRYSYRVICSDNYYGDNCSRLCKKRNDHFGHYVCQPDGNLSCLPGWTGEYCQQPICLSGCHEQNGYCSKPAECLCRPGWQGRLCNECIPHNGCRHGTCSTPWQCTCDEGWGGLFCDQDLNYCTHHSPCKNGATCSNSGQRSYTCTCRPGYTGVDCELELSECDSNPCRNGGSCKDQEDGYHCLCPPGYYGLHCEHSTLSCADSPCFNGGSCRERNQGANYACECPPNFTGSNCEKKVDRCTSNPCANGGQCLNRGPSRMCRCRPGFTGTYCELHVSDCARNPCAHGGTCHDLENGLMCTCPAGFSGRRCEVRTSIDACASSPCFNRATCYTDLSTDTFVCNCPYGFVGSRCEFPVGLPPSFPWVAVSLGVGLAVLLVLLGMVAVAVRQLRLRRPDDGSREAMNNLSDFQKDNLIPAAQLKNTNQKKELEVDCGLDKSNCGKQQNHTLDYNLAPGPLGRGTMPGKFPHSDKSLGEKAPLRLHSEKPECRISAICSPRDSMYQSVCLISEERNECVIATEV

binding to DLL1 (DLL1): not DLL1 or DLL4
binding to DLL3 (DLL3 [2]): selectively bind DLL3
Epitope Bin [3]: 2
binding to DLL4 (DLL4): not DLL1 or DLL4
B1: 2-C8-A: anti-DLL3 monoclonal antibody, VH SEQ ID NO: 12 and VL SEQ ID NO: 17 (antibody, V domains shown)
VH: EVQLVESGGGLVQPGGSQRLSCAASGFTFSSYWMNWVRQAPGKGLEWVANIKEDGSEKYYVDSVKGRFTISRDNAKNSLYLQMNSLRAEDTAVYYCARDPGWAPFDYWGQGTLVTVSS
VL: DIQMSQSPSSLSASVGDRVTITCRASQGISNYLAWFQQKPGKAPKSLIYAASSLQSGVPSKFSGSGSGTDFTLAISSLQPEDFATYYCQQYNSFPYTFGQGTTLEIK
ability to internalize DLL3 (DLL3 [1]): able to internalize on binding DLL3 but not to the extent of the reference monoclonal antibody
293 (negative control) (ratio of MFI for the monoclonal divided by background staining with the 2nd stage) (293 (negative control)): 0.59
